In patent US20030113325A1 (CHILDREN S MEDICAL CENTER, published 2003):

T1: Nogo-66 receptor (NgR), full-length, expressed on transfected cells (human, UniProt Q9BZR6 27-447)
T1 construct: whole, on cells; The species of the NgR on the CHO cells is not restated; also called Nogo receptor
T1 sequence (looked up): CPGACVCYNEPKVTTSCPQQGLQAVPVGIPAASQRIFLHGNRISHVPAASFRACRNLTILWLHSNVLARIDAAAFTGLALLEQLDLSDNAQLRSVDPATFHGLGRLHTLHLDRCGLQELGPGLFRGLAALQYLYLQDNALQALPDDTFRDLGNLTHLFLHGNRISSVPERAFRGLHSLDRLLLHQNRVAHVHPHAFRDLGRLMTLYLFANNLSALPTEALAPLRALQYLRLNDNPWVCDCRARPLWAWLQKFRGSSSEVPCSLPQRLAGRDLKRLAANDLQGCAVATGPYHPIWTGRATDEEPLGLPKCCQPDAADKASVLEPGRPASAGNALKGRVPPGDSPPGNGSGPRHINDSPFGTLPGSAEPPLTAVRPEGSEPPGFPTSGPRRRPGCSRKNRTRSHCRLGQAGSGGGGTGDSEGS

B1: GST-NgR fusion protein containing the entire extracellular domain of NgR (receptor, UniProt Q9BZR6 27-447, looked up)
chain: T1 sequence (looked up)
notes: extracellular domain; not shown: glutathione S-transferase (GST) fusion partner
B2: AP-OMgp fusion protein (ligand, mouse, UniProt Q63912 25-417, looked up)
chain: ICPLQCTCTERHRHVDCSGRNLTTLPPGLQENIIHLNLSYNHFTDLHNQLTPYTNLRTLDISNNRLESLPAQLPRSLWNMSAANNNIKLLDKSDTAYQWNLKYLDVSKNMLEKVVLIKNTLRSLEVLNLSSNKLWTVPTNMPSKLHIVDLSNNSLTQILPGTLINLTNLTHLYLHNNKFTFIPEQSFDQLLQLQEITLHNNRWSCDHKQNITYLLKWVMETKAHVIGTPCSKQVSSLKEQSMYPTPPGFTSSLFTMSEMQTVDTINSLSMVTQPKVTKTPKQYRGKETTFGVTLSKDTTFSSTDRAVVAYPEDTPTEMTNSHEAAAATLTIHLQDGMSSNASLTSATKSPPSPVTLSIARGMPNNFSEMPRQSTTLNLRREETTANGNTRPPS
notes: Secreted from COS-7 cells and purified on nickel-agarose; about 180 kDa; The order of the parts follows the name AP-OMgp; not shown: alkaline phosphatase (AP) reporter of expression vector AP-5 (Flanagan and Cheng, 2000)

Experiments:
[1] = target: T2, AP (UniProt P05187 23-511, limits assumed); assay: coimmunoprecipitation of GST or GST-NgR with AP or AP-OMgp
T2 construct: Control in the coimmunoprecipitation; also called alkaline phosphatase; AP alone
T2 sequence (P05187 23-511 limits assumed): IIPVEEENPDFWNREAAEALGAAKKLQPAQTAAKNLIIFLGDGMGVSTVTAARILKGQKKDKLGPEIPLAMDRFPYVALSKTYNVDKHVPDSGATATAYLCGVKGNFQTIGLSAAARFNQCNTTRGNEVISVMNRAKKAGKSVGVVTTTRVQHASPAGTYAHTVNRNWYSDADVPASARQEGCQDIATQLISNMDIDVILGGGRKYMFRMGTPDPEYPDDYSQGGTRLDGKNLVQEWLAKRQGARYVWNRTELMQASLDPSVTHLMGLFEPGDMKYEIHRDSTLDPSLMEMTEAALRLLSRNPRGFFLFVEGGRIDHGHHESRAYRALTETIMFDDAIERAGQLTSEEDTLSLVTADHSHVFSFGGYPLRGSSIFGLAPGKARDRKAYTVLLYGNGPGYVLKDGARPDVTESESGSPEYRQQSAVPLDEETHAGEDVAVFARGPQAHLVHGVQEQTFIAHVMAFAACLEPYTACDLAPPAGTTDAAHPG
Source text: (§1) We next took advantage of AP-OMgp binding to identify cell surface OMgp-binding proteins by expression cloning (He & Tessier-Lavigne, 1997; Flanagan and Cheng, 2000; Fournier et al., 2001). Pools of a complementary DNA expression library from adult human brain, representing approximately 250,000 independent clones, were transfected into COS-7 cells and screened for the presence of cells that bound AP-OMgp. […] After screening several rounds of subpools, we isolated two cDNAs that encoded the OMgp-binding proteins. […] We next performed coimmunoprecipitation experiments by incubating GST or a GST-NgR fusion protein containing the entire extracellular domain of NgR (GST-NgR) with AP or AP-OMgp.

[2] = target: T1, Nogo-66 receptor (NgR), full-length, …; assay: saturation analysis of AP-OMgp binding to N2A cells transfected with NgR cDNA, bound AP activity
Source text: as §1
Cell surface binding and expression cloning were performed as described previously (He and Tessier-Lavigne, 1997). To detect AP-OMgp binding, cultures were washed with binding buffer (Hanks balanced salt solution containing 20 mM Hepes, pH 7.5, and 1 mg/ml bovine serum albumin (BSA)). The plates were then incubated with AP-OMgp-containing binding buffer for 75 min at room temperature. After extensive washing and heat inactivation, bound AP fusion proteins were detected by AP staining using NBT and BCIP as substrate. For saturation analysis, we disrupted cells and detected bound AP fusion proteins using […] as substrate.

Binder	binding result [1]	Kd [2] [nM]
B1	no binding	
B2		5
